Laboratory results as given in patent US20200017880A1.

Columns and labels:
[1] = target: CD28 on cells (PBMCs, T responder cells) (human) (UniProt P10747); test: flow cytometry; Fab monomers remaining on the liberated CD28+ cells after D-biotin and washing, detected with an antibody against the immunoglobulin kappa light chain
[2] = target: CD3 on Jurkat cells and on PBMCs (UniProt P07766); test: flow cytometry; second Fab-multimer staining of PBMCs that had been stained reversibly, treated with D-biotin and washed (control panel, far right)
UniProt P07766, sequence (P07766 23-207): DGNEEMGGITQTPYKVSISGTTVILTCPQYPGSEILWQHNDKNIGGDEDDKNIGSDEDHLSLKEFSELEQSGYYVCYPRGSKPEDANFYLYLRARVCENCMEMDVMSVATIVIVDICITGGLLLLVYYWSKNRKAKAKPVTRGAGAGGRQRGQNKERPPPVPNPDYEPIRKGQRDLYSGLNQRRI

% of cells within gate [1]	% of cells within gate [2]	Substance
5.91%		anti-CD28 Fab fragment derived from antibody CD28.3, heavy chain C-terminally fused to Twin-Strep-tag (monomeric Fab)
	64.7%	OKT3 Fab fragments multimerized by reversible binding to soluble Strep-Tactin conjugated with phycoerythrin
